From paper PMC8933513 (2022)

Assays:
Assay in all cases: SPR
[1] = biological target: hAPN ectodomain W429A mutant (human, UniProt P15144 62-963, W429A)
[2] = biological target: hAPN ectodomain K379A mutant (human, UniProt P15144 62-963, K379A)
[3] = biological target: T1, human aminopeptidase N (hAPN) ectodomain, residues 62-963, wild type (human, UniProt P15144 62-963)
T1 chain: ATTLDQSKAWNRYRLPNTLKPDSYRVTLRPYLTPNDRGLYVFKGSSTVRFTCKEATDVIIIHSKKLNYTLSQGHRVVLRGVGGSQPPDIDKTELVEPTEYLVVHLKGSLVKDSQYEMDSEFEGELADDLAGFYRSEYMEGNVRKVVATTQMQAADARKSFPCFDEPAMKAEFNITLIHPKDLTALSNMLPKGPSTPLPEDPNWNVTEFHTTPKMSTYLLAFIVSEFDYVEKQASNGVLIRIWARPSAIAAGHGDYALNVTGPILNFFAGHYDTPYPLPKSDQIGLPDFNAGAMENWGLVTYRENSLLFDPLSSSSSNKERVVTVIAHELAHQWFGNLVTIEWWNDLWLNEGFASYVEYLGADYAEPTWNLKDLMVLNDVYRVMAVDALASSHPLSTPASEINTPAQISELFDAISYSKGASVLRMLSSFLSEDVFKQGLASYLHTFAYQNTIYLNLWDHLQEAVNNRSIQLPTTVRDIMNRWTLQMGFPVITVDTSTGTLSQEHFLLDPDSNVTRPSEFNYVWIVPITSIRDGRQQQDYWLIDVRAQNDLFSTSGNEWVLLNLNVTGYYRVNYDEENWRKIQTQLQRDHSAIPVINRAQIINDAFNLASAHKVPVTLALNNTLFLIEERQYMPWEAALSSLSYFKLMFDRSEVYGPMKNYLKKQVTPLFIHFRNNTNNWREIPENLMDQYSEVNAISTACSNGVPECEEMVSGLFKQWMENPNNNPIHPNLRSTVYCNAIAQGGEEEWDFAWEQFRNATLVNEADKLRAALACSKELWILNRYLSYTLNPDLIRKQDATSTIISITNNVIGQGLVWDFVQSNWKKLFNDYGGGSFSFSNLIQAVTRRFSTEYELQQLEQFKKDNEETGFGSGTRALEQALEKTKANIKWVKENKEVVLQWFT

[4] = biological target: hAPN ectodomain E742A mutant (human, UniProt P15144 62-963, E742A)
[5] = biological target: T2, pAPN ectodomain E421A mutant (pig, UniProt P15145 58-961, E421A)
T2 sequence: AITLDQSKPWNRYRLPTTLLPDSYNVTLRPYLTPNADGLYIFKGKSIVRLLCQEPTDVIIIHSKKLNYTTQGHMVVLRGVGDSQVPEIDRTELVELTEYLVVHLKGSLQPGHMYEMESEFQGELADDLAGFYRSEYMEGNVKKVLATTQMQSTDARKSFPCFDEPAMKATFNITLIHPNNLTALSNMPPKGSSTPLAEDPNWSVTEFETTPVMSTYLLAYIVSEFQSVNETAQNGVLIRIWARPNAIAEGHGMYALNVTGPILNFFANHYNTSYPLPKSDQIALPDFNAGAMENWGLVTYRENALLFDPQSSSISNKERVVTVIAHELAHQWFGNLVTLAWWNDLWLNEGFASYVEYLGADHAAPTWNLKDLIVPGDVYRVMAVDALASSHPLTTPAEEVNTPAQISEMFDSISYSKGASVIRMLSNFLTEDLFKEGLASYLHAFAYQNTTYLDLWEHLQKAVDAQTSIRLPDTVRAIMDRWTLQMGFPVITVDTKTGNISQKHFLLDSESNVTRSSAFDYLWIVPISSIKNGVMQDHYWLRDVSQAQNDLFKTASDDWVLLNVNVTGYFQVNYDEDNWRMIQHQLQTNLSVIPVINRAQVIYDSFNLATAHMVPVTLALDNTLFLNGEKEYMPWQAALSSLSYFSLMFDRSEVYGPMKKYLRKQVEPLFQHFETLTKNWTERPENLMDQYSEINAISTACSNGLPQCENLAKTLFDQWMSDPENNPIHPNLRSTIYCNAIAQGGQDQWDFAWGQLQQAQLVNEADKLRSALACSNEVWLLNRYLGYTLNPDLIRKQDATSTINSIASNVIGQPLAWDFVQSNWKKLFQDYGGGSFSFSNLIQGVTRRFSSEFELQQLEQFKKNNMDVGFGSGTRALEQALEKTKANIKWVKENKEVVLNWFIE

[6] = biological target: hAPN ectodomain H789A mutant (human, UniProt P15144 62-963, H789A)

hAPN ectodomain W429A mutant, sequence (P15144 62-963 W429A): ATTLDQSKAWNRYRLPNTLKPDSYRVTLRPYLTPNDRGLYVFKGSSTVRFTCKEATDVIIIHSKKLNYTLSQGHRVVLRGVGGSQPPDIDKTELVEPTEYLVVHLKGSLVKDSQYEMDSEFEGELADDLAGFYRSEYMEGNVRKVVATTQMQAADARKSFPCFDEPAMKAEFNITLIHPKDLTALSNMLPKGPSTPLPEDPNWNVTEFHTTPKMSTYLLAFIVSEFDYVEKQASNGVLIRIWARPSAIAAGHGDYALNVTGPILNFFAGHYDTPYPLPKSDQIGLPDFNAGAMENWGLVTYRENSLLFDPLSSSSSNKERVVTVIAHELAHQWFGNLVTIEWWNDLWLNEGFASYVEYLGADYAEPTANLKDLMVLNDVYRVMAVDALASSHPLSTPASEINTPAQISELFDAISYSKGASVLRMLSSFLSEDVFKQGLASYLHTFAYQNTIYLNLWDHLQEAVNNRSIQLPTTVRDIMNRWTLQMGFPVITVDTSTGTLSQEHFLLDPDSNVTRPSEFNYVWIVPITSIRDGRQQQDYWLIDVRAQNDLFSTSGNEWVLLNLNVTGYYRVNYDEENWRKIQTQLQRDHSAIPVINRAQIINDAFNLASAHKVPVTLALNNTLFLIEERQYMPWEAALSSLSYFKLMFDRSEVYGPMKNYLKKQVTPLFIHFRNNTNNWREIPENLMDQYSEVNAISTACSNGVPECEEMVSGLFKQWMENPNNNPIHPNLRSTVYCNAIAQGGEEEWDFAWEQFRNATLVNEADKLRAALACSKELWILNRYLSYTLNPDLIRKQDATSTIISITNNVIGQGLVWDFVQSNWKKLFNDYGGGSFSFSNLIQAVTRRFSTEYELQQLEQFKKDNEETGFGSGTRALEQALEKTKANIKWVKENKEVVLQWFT
hAPN ectodomain K379A mutant, sequence (P15144 62-963 K379A): as the sequence (P15144 62-963 W429A) above, with K318A, A368W counted along it

B1: PDCoV spike (S) protein receptor binding domain (RBD), residues 300-419, wild type (domain or fragment)
chain: PKLPELEVVQLNISAHMDFGEARLDSVTINGNTSYCVTKPYFRLETNFMCTGCTMNLRTDTCSFDLSAVNNGMSFSQFCLSTESGACEMKIIVTYVWNYLLRQRLYVTAVEGQTHTGTTS
For B1, the Kd [1] was 127 µM, the Kd [2] was 444 µM and the Kd [3] was 3.71 µM. It also gave a Kd [4] of 13.7 µM, a Kd [5] of 125 µM and a Kd [6] of 6.25 µM.
